From the supplement of paper PMC10724198
± gives the standard deviation of the averaged measurements.

Experiments:
Saccharomyces cerevisiae [1] = assay: protein stability index of tFT-peptide fusion (C-terminal peptide) (PSI (0-1 scale)); higher = more stable (slower turnover)
Description: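 MPS profiling in S. cerevisiae of the tFT-X12 degron library: putative degron peptides plus stable controls, 12 aa, fused to the C-terminus of a sfGFP-mCherry timer. Cells are FACS-sorted into 8 mCherry/sfGFP bins and deep-sequenced. PSI runs from 0 (unstable) to 1 (stable). Backgrounds are wild type, das1Δ and doa10Δ at 30 °C, and wild type, das1Δ, cdc34-1 and cdc53-1 at 37 °C; 2-3 technical replicates each.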

Saccharomyces cerevisiae [2] = assay: as above; conditions: genetic background: wild type; temperature: 30 C
[3] = genetic background: cdc34-1, temperature: 37 C
[4] = genetic background: cdc53-1, temperature: 37 C
[5] = genetic background: das1 deletion, temperature: 30 C
[6] = genetic background: das1 deletion, temperature: 37 C
[7] = genetic background: doa10 deletion, temperature: 30 C
[8] = genetic background: wild type, temperature: 30 C
[9] = genetic background: wild type, temperature: 37 C
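Further: PSI is a weighted mean of sequencing reads over stability bins, variants kept only with over 10 reads, mCherry proximal and sfGFP distal, peptide attached via GGGS linker.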

Row | Sequence | protein stability index (Saccharomyces cerevisiae [1]; [3]) | protein stability index (Saccharomyces cerevisiae [1]; [4]) | protein stability index (Saccharomyces cerevisiae [1]; [5]) | protein stability index (Saccharomyces cerevisiae [1]; [6]) | protein stability index (Saccharomyces cerevisiae [1]; [7]) | protein stability index (Saccharomyces cerevisiae [1]; [8]) | protein stability index (Saccharomyces cerevisiae [1]; [9]) | protein stability index (Saccharomyces cerevisiae [2])
1 | RLLFFVFLSSRF | 0.287 ± 0.019 | 0.268 ± 0.014 | 0.33 ± 0.025 | 0.472 ± 0.0093 | 0.489 ± 0.04 | 0.329 ± 0.035 | 0.4212 ± 0.0027 | 0.407 ± 0.0066
2 | RLRCRVLQWVWG | 0.617 ± 0.0085 | 0.693 ± 0.0084 | 0.557 ± 0.038 | 0.6562 ± 0.0012 | 0.352 ± 0.0078 | 0.385 ± 0.027 | 0.571 ± 0.0062 | 0.471 ± 0.035
3 | RLSTTTTKQFIH | 0.668 ± 0.016 | 0.74 ± 0.013 | 0.661 ± 0.045 | 0.753 ± 0.021 | 0.302 ± 0.0053 | 0.348 ± 0.022 | 0.58 ± 0.011 | 0.4902 ± 0.0011
4 | RMTFFGFTVKML | 0.641 ± 0.025 | 0.7448 ± 0.0058 | 0.619 ± 0.0095 | 0.75 ± 0.011 | 0.196 ± 0.036 | 0.264 ± 0.03 | 0.537 ± 0.01 | 0.407 ± 0.031
5 | RNFSFTVICLAM | 0.48 ± 0.037 | 0.62 ± 0.05 | 0.485 ± 0.057 | 0.549 ± 0.0093 | 0.472 ± 0.026 | 0.474 ± 0.023 | 0.514 ± 0.019 | 0.511 ± 0.11
6 | RPCRPLIAAFVF | 0.531 ± 0.0097 | 0.537 ± 0.022 | 0.415 ± 0.045 | 0.5628 ± 0.0049 | 0.374 ± 0.012 | 0.421 ± 0.031 | 0.529 ± 0.0077 | 0.502 ± 0.011
7 | RQILYYRERFIP | 0.577 ± 0.043 | 0.715 ± 0.014 | 0.634 ± 0.011 | 0.694 ± 0.027 | 0.169 ± 0.012 | 0.196 ± 0.022 | 0.355 ± 0.017 | 0.313 ± 0.0065
8 | RRIKNRRLKQVT | 0.63 ± 0.076 | 0.694 ± 0.011 | 0.666 ± 0.064 | 0.722 ± 0.0067 | 0.214 ± 0.0054 | 0.283 ± 0.026 | 0.472 ± 0.036 | 0.43 ± 0.033
9 | RRQLVLVLSWVI | 0.466 ± 0.017 | 0.508 ± 0.018 | 0.346 ± 0.027 | 0.507 ± 0.019 | 0.299 ± 0.013 | 0.322 ± 0.017 | 0.506 ± 0.067 | 0.377 ± 0.025
10 | RRQQNHRQLCAT | 0.65 ± 0.092 | 0.708 ± 0.029 | 0.642 ± 0.028 | 0.7322 ± 0.0065 | 0.21 ± 0.018 | 0.259 ± 0.038 | 0.518 ± 0.038 | 0.401 ± 0.016
11 | RRRNQAAHLYSH | 0.617 ± 0.024 | 0.694 ± 0.044 | 0.67 ± 0.023 | 0.708 ± 0.0077 | 0.139 ± 0.022 | 0.159 ± 0.024 | 0.348 ± 0.011 | 0.268 ± 0.013
12 | RSFGGRPWVLFL | 0.623 ± 0.037 | 0.733 ± 0.023 | 0.638 ± 0.018 | 0.7549 ± 0.0052 | 0.106 ± 0.014 | 0.0971 ± 0.025 | 0.255 ± 0.019 | 0.192 ± 0.034
13 | RTRVRKTRIRTC | 0.624 ± 0.039 | 0.6934 ± 0.0022 | 0.637 ± 0.018 | 0.724 ± 0.015 | 0.234 ± 0.02 | 0.277 ± 0.0072 | 0.517 ± 0.011 | 0.392 ± 0.021
14 | RVFLVLFLILSG | 0.297 ± 0.021 | 0.428 ± 0.0072 | 0.287 ± 0.031 | 0.469 ± 0.0087 | 0.262 ± 0.0092 | 0.286 ± 0.018 | 0.425 ± 0.0055 | 0.344 ± 0.028
15 | RVIRHLRRISNF | 0.647 ± 0.035 | 0.745 ± 0.0042 | 0.661 ± 0.0098 | 0.705 ± 0.046 | 0.142 ± 0.009 | 0.16 ± 0.045 | 0.307 ± 0.034 | 0.369 ± 0.021
16 | RVLSLLGCFVVF | 0.501 ± 0.03 | 0.486 ± 0.013 | 0.448 ± 0.028 | 0.585 ± 0.018 | 0.485 ± 0.017 | 0.429 ± 0.013 | 0.558 ± 0.026 | 0.4651 ± 0.0023
17 | RVLVEIVYFKVF | 0.244 ± 0.0031 | 0.395 ± 0.032 | 0.256 ± 0.04 | 0.474 ± 0.012 | 0.037 ± 0.014 | 0.05 ± 0.0044 | 0.055 ± 0.00095 | 0.134 ± 0.0018
18 | RVRNSQVVAVVG | 0.491 ± 0.014 | 0.576 ± 0.014 | 0.354 ± 0.038 | 0.586 ± 0.0092 | 0.3291 ± 0.0023 | 0.382 ± 0.018 | 0.548 ± 0.022 | 0.477 ± 0.011
19 | RVTEYHTKYKIV | 0.487 ± 0.13 | 0.673 ± 0.076 | 0.656 ± 0.025 | 0.728 ± 0.077 | 0.0697 ± 0.0072 | 0.0674 ± 0.021 | 0.0807 ± 0.021 | 0.153 ± 0.012
20 | RWAAAVPLLVVG | 0.0233 ± 0.0059 | 0.0234 ± 0.0027 | 0.143 ± 0.026 | 0.105 ± 0.0046 | 0.111 ± 0.018 | 0.137 ± 0.032 | 0.0908 ± 0.0062 | 0.211 ± 0.022

Row | Sequence | protein stability index (Saccharomyces cerevisiae [1]; [3]) | protein stability index (Saccharomyces cerevisiae [1]; [4]) | protein stability index (Saccharomyces cerevisiae [1]; [5]) | protein stability index (Saccharomyces cerevisiae [1]; [6]) | protein stability index (Saccharomyces cerevisiae [1]; [7]) | protein stability index (Saccharomyces cerevisiae [1]; [8]) | protein stability index (Saccharomyces cerevisiae [1]; [9]) | protein stability index (Saccharomyces cerevisiae [2])
21 | RWRYHAYVITIL | 0.334 ± 0.02 | 0.4158 ± 0.0037 | 0.392 ± 0.02 | 0.506 ± 0.0054 | 0.118 ± 0.0098 | 0.0812 ± 0.025 | 0.0987 ± 0.0088 | 0.138 ± 0.045
22 | RYKIEKKKLMNN | 0.667 ± 0.019 | 0.741 ± 0.18 | 0.602 ± 0.01 | 0.7361 ± 0.003 | 0.182 ± 0.0036 | 0.235 ± 0.035 | 0.448 ± 0.048 | 0.42 ± 0.038
23 | SEVMVGLRLTLN | 0.67 ± 0.051 | 0.728 ± 0.018 | 0.628 ± 0.033 | 0.7149 ± 0.0029 | 0.282 ± 0.0065 | 0.318 ± 0.03 | 0.545 ± 0.029 | 0.416 ± 0.038
24 | SFRIWLFRFFFV | 0.6 ± 0.034 | 0.669 ± 0.034 | 0.555 ± 0.047 | 0.651 ± 0.008 | 0.364 ± 0.025 | 0.372 ± 0.016 | 0.541 ± 0.032 | 0.407 ± 0.018
25 | SFSFCCLLASFV | 0.605 ± 0.015 | 0.6186 ± 0.006 | 0.484 ± 0.028 | 0.617 ± 0.014 | 0.444 ± 0.025 | 0.461 ± 0.015 | 0.603 ± 0.013 | 0.44 ± 0.044
26 | SFSIPILLLAFP | 0.264 ± 0.018 | 0.2229 ± 0.00014 | 0.311 ± 0.022 | 0.409 ± 0.011 | 0.451 ± 0.026 | 0.314 ± 0.021 | 0.3719 ± 0.0017 | 0.425 ± 0.006
27 | SFYAGLVVGGVG | 0.582 ± 0.038 | 0.616 ± 0.014 | 0.508 ± 0.026 | 0.6 ± 0.0064 | 0.525 ± 0.001 | 0.5 ± 0.018 | 0.5813 ± 0.0037 | 0.528 ± 0.053
28 | SGLVAFSVCCRG | 0.4091 ± 0.00089 | 0.449 ± 0.036 | 0.301 ± 0.039 | 0.5177 ± 0.0048 | 0.2625 ± 0.0015 | 0.308 ± 0.02 | 0.4862 ± 0.0037 | 0.433 ± 0.021
29 | SGLVHVLILGAC | 0.4899 ± 0.0043 | 0.5165 ± 0.0038 | 0.347 ± 0.038 | 0.5529 ± 0.0051 | 0.313 ± 0.0048 | 0.338 ± 0.033 | 0.506 ± 0.011 | 0.45 ± 0.0019
30 | SGRGFSFVLCTV | 0.539 ± 0.039 | 0.599 ± 0.013 | 0.339 ± 0.035 | 0.58 ± 0.017 | 0.307 ± 0.013 | 0.339 ± 0.025 | 0.58 ± 0.015 | 0.4119 ± 2.1e-05
31 | SGRKNQRILGLY | 0.656 ± 0.1 | 0.7334 ± 0.0067 | 0.6488 ± 0.0054 | 0.731 ± 0.023 | 0.199 ± 0.029 | 0.221 ± 0.038 | 0.497 ± 0.011 | 0.301 ± 0.055
32 | SLAPPPPLLILR | 0.403 ± 0.049 | 0.325 ± 0.015 | 0.345 ± 0.021 | 0.479 ± 0.049 | 0.605 ± 0.0019 | 0.348 ± 0.025 | 0.4471 ± 0.0029 | 0.335 ± 0.022
33 | SLARPGLCFVIA | 0.534 ± 0.002 | 0.583 ± 0.018 | 0.356 ± 0.029 | 0.569 ± 0.011 | 0.311 ± 0.019 | 0.342 ± 0.026 | 0.543 ± 0.029 | 0.417 ± 0.034
34 | SLASPPPLLILR | 0.372 ± 0.057 | 0.342 ± 0.023 | 0.326 ± 0.032 | 0.436 ± 0.038 | 0.60698 ± 1.5e-05 | 0.354 ± 0.0056 | 0.434 ± 0.01 | 0.346 ± 0.023
35 | SLFFCIPIHSVF | 0.606 ± 0.046 | 0.585 ± 0.0079 | 0.491 ± 0.014 | 0.5855 ± 0.0036 | 0.398 ± 0.012 | 0.423 ± 0.021 | 0.524 ± 0.013 | 0.461 ± 0.014
36 | SLIVLRSIAVLD | 0.484 ± 0.015 | 0.505 ± 0.027 | 0.39 ± 0.02 | 0.543 ± 0.038 | 0.3743 ± 0.0022 | 0.392 ± 0.025 | 0.518 ± 0.013 | 0.449 ± 0.012
37 | SLRYRFLSFFFL | 0.615 ± 0.038 | 0.72 ± 0.018 | 0.636 ± 0.055 | 0.7089 ± 0.0057 | 0.189 ± 0.015 | 0.208 ± 0.019 | 0.338 ± 0.023 | 0.282 ± 0.026
38 | SLSFLRPLLLIF | 0.0444 ± 0.014 | 0.0385 ± 0.012 | 0.12 ± 0.028 | 0.118 ± 0.0077 | 0.131 ± 0.0095 | 0.0702 ± 0.013 | 0.0953 ± 0.019 | 0.102 ± 0.012
39 | SLTNYQRLIHVC | 0.147 ± 0.037 | 0.245 ± 0.064 | 0.223 ± 0.031 | 0.361 ± 0.014 | 0.0969 ± 0.0057 | 0.126 ± 0.036 | 0.0936 ± 0.0094 | 0.258 ± 0.13
